In the Immune Epitope Database (IEDB):

Columns and labels:
HLA-B*35:01 = experiment: IEDB peptide-MHC binding, purified MHC/competitive/radioactivity; filed as Kd, often an IC50 or EC50 that approximates it; ≥ and ≤ were set here for values at or beyond the usual limits of such assays
HLA-B*53:01 = experiment: as above
HLA-B*54:01 = experiment: as above
HLA-B*07:02 = experiment: as above
HLA-B*51:01 [1] = experiment: as above
HLA-A*02:06 = experiment: as above
HLA-A*02:01 [2] = experiment: as above
HLA-A*68:02 = experiment: as above
HLA-A*11:01 = experiment: as above
HLA-A*33:01 = experiment: as above
HLA-A*03:01 = experiment: as above
HLA-A*31:01 = experiment: as above
HLA-A*68:01 = experiment: as above
HLA-A*02:02 = experiment: as above
HLA-A*02:03 = experiment: as above
HLA-B*48:01 = experiment: IEDB peptide-MHC binding, purified MHC/direct/fluorescence; filed as Kd, often an IC50 or EC50 that approximates it; ≥ and ≤ were set here for values at or beyond the usual limits of such assays
HLA-B*57:01 = experiment: IEDB peptide-MHC binding, purified MHC/competitive/fluorescence; filed as Kd, often an IC50 or EC50 that approximates it; ≥ and ≤ were set here for values at or beyond the usual limits of such assays; details: source organism: Homo sapiens
HLA-B*27:03 = experiment: as above; details: source organism: Homo sapiens
HLA-A*26:01 = experiment: as above; details: source organism: Homo sapiens
HLA-A*69:01 = experiment: as above; details: source organism: Homo sapiens
HLA-B*18:01 = experiment: as above; details: source organism: Homo sapiens
HLA-B*51:01 [3] = experiment: as above; details: source organism: Homo sapiens
HLA-B*46:01 = experiment: as above; details: source organism: Homo sapiens
HLA-A*02:01 [4] = experiment: IEDB peptide-MHC binding, purified MHC/direct/fluorescence; filed as Kd, often an IC50 or EC50 that approximates it; ≥ and ≤ were set here for values at or beyond the usual limits of such assays; details: source organism: Rattus norvegicus
[5] = source organism: SARS coronavirus Tor2
[6] = source organism: Mammarenavirus guanaritoense
[7] = source organism: Vaccinia virus Copenhagen
[8] = source organism: Trypanosoma cruzi
[9] = source organism: Triticum aestivum
[10] = source organism: Vaccinia virus WR

Sequence: APAHVSTIGV
- Kd (HLA-B*35:01; [5]): 10.5 µM
- Kd (HLA-B*53:01; [5]): 17 µM
- Kd (HLA-B*54:01; [5]): 3.11 µM
- Kd (HLA-B*07:02; [5]): 0.0344 µM
- Kd (HLA-B*51:01 [1]; [5]): 12.5 µM

Sequence: CPMCCSKIL
- Kd (HLA-B*35:01; [6]): 0.018 µM
- Kd (HLA-B*53:01; [6]): 0.0629 µM
- Kd (HLA-B*54:01; [6]): 0.155 µM
- Kd (HLA-B*07:02; [6]): 0.0217 µM
- Kd (HLA-B*51:01 [1]; [6]): 0.182 µM

Sequence: ELRSKREQEV
- Kd (HLA-A*02:06; source organism: Homo sapiens): ≥ 72.5 µM
- Kd (HLA-A*02:01 [2]; source organism: Homo sapiens): 18.8 µM
- Kd (HLA-A*68:02; source organism: Homo sapiens): 2.53 µM

Sequence: EMRQKHSQAV
- Kd (HLA-A*02:06; source organism: Homo sapiens): ≥ 72.5 µM
- Kd (HLA-A*02:01 [2]; source organism: Homo sapiens): ≥ 33.9 µM
- Kd (HLA-A*68:02; source organism: Homo sapiens): 0.512 µM

Sequence: FILGIIITV
- Kd (HLA-B*35:01; [7]): ≥ 39.6 µM
- Kd (HLA-B*53:01; [7]): 5.54 µM
- Kd (HLA-A*11:01; [7]): 19.6 µM
- Kd (HLA-B*54:01; [7]): 3.34 µM
- Kd (HLA-A*33:01; [7]): 4.51 µM
- Kd (HLA-A*03:01; [7]): 1.5 µM
- Kd (HLA-A*31:01; [7]): 1.17 µM
- Kd (HLA-A*68:01; [7]): 3.21 µM
- Kd (HLA-B*07:02; [7]): ≥ 32.7 µM
- Kd (HLA-B*51:01 [1]; [7]): ≥ 68.4 µM

Sequence: FLPSDFFPSA
- Kd (HLA-A*02:01 [2]; source organism: Hepatitis B virus): 0.023 µM

Sequence: GLLPLFLLLG
- Kd (HLA-A*02:06; [8]): 0.0183 µM
- Kd (HLA-A*02:02; [8]): 0.0291 µM
- Kd (HLA-A*02:01 [2]; [8]): 0.000154 µM
- Kd (HLA-A*02:03; [8]): 0.138 µM
- Kd (HLA-A*68:02; [8]): 7.59 µM

Sequence: IPEQSRCQAI
- Kd (HLA-B*35:01; [9]): 0.519 µM
- Kd (HLA-B*53:01; [9]): 0.519 µM
- Kd (HLA-B*54:01; [9]): ≥ 32.4 µM
- Kd (HLA-B*07:02; [9]): 0.0146 µM
- Kd (HLA-B*51:01 [1]; [9]): 0.246 µM

Sequence: KPAMSTYSDI
- Kd (HLA-B*35:01; [10]): ≥ 63.7 µM
- Kd (HLA-B*53:01; [10]): 8.83 µM
- Kd (HLA-B*54:01; [10]): 9.87 µM
- Kd (HLA-B*07:02; [10]): 0.161 µM
- Kd (HLA-B*51:01 [1]; [10]): 14 µM

Sequence: KPDGSDSMDV
- Kd (HLA-B*35:01; [10]): ≥ 69.9 µM
- Kd (HLA-B*53:01; [10]): ≥ 69.9 µM
- Kd (HLA-B*54:01; [10]): ≥ 69.9 µM
- Kd (HLA-B*07:02; [10]): 0.244 µM
- Kd (HLA-B*51:01 [1]; [10]): ≥ 69.6 µM

Sequence: KPDHDGNTPL
- Kd (HLA-B*35:01; [10]): 3.28 µM
- Kd (HLA-B*53:01; [10]): 7.08 µM
- Kd (HLA-B*54:01; [10]): ≥ 41 µM
- Kd (HLA-B*07:02; [10]): 0.031 µM
- Kd (HLA-B*51:01 [1]; [10]): ≥ 69.6 µM

Sequence: KPKPAVRYAI
- Kd (HLA-B*35:01; source organism: Variola virus): ≥ 69.9 µM
- Kd (HLA-B*53:01; source organism: Variola virus): ≥ 69.9 µM
- Kd (HLA-B*54:01; source organism: Variola virus): 12.5 µM
- Kd (HLA-B*07:02; source organism: Variola virus): 0.00472 µM
- Kd (HLA-B*51:01 [1]; source organism: Variola virus): ≥ 69.6 µM

Sequence: KQIAEHATI
- Kd (HLA-B*48:01; source organism: Bacillus thuringiensis): 0.351 µM

Sequence: KQLGQVMLL
- Kd (HLA-B*48:01; source organism: dengue virus type 2): 0.0062 µM
- Kd (HLA-A*02:06; source organism: Dengue virus 2 Jamaica/1409/1983): 0.00517 µM

Sequence: KQMEDGHTL
- Kd (HLA-B*57:01): ≥ 20 µM
- Kd (HLA-B*27:03): ≥ 20 µM
- Kd (HLA-A*26:01): ≥ 20 µM
- Kd (HLA-A*69:01): ≥ 20 µM
- Kd (HLA-B*18:01): ≥ 20 µM
- Kd (HLA-B*51:01 [3]): ≥ 20 µM
- Kd (HLA-B*46:01): ≥ 20 µM
- Kd (HLA-A*02:01 [4]): 0.0048 µM

Sequence: LMIFISSFLL
- Kd (HLA-A*02:06; [10]): 0.0764 µM
- Kd (HLA-B*35:01; [10]): ≥ 20.9 µM
- Kd (HLA-B*53:01; [10]): 0.971 µM
- Kd (HLA-A*02:02; [10]): 0.00293 µM
- Kd (HLA-A*11:01; [10]): 1.21 µM
- Kd (HLA-B*54:01; [10]): 3.24 µM
- Kd (HLA-A*33:01; [10]): 0.707 µM
- Kd (HLA-A*03:01; [10]): 0.42 µM
- Kd (HLA-A*31:01; [10]): 0.284 µM
- Kd (HLA-A*68:01; [10]): 0.283 µM
- Kd (HLA-B*07:02; [10]): ≥ 27.2 µM
- Kd (HLA-A*02:03; [10]): 0.0801 µM
- Kd (HLA-B*51:01 [1]; [10]): 1.6 µM
- Kd (HLA-A*68:02; [10]): 0.0733 µM

Sequence: LPNVDLTTM
- Kd (HLA-B*35:01; [10]): 0.000159 µM
- Kd (HLA-B*53:01; [10]): 0.000222 µM
- Kd (HLA-B*54:01; [10]): 0.717 µM
- Kd (HLA-B*07:02; [10]): 0.0549 µM
- Kd (HLA-B*51:01 [1]; [10]): 0.0622 µM
